Laboratory results published in patent US20240277845A1.
Residue numbers refer to the chain shown, from its start. Numbers in names are those of the source.

B1: R3Mab heavy-chain fusion of wild-type ULBP2 (MicAbody) (bispecific antibody, part only; not given: R3Mab variable domains, light chain, Fc, not shown: a dimerising Fc or GST)
heavy, part: GGGSDPHSLCYDITVIPKFRPGPRWCAVQGQVDEKTFLHYDCGNKTVTPVSPLGKKLNVTTAWKAQNPVLREVVDILTEQLRDIQLENYTPKEPLTLQARMSCEQKAEGHSSGSWQFSFDGQIFLLFDSEKRMWTTVHPGARKMKEKWENDKVVAMSFHYFSMGDCIGWLEDFLMGMDSTLEPSAGAP
B2: R3Mab heavy-chain fusion of ULBP2 R81W (MicAbody) (bispecific antibody, part only; not given: R3Mab variable domains, light chain, Fc, not shown: a dimerising Fc or GST)
heavy, part: B1 heavy, part with R82W
B3: R3Mab heavy-chain fusion of U2S3 (MicAbody) (bispecific antibody, part only; not given: R3Mab variable domains, light chain, Fc, IgG1, not shown: a dimerising Fc or GST)
heavy, part: GGGSEPHSLSYDITVIPKFRPGPRWCAVQGQVDEKTFLHYDCGNKTVTPVSPLGKKLNVTTAWKAQNPVLREVVDILTEQLWDIQLENYTPKEPLTLQARMSCEQKAEGHSSGSWQFSFDGQIFLLFDSEKRMWTTVHPGARKMKEKWENDKVVATKLYLWSMGDCIGWLEDFLMGMDSTLEP

How the values were obtained:
Fc-wtNKG2D (human) = Fc-wtNKG2D (human) (UniProt P26718); experiment: ELISA; wells coated with Fc-wtNKG2D, R3Mab heavy-chain MicAbody titrated
Chain of Fc-wtNKG2D (human) (P26718 other isoform, or with tags, fused parts or gaps limits assumed): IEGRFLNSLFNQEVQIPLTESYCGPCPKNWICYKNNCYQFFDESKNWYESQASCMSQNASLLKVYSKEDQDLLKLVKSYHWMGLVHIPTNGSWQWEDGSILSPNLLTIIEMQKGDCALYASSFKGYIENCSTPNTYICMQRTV

Fc-iNKG2D.YA (human) = Fc-iNKG2D.YA (human) (UniProt P26718); experiment: ELISA; wells coated with Fc-iNKG2D.YA, R3Mab heavy-chain MicAbody titrated
Chain of Fc-iNKG2D.YA (human) (P26718 other isoform, or with tags, fused parts or gaps limits assumed): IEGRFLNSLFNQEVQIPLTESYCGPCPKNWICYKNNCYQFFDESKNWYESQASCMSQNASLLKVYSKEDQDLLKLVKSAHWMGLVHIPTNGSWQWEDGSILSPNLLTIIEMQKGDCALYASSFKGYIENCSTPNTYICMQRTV

Binder | EC50 (read off the curve) (Fc-wtNKG2D (human)) [nM] | EC50 (read off the curve) (Fc-iNKG2D.YA (human)) [nM]
B1 | 0.4 | –
B2 | 0.02 | –
B3 | – | 0.02
